Test in all cases: Flow cytometry of anti-FZD5 Fab binding to CHO cells overexpressing Frizzled CRD
One experiment concerns the target T1, FZD1 CRD (Homo sapiens, UniProt Q9UP38).
T1 construct: D112-P238; GPI anchor signal (C); expressed in transfected cells; host or cells: CHO cells, lentiviral pLenti-puro
The essentials:
(§1)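 CHO lines each expressing a different human Frizzled CRD, myc-tagged and GPI-anchored at the surface, stained with 200 nM Fab, then Alexa Fluor 488 F(ab′)2 secondary. Dead cells excluded by viability dye; anti-c-Myc staining served as expression control. Binding read by flow cytometry.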

In a further experiment the target is T2, FZD2 CRD (Homo sapiens, UniProt Q14332).
T2 construct: D35-P161; GPI anchor signal (C); expressed in transfected cells; host or cells: CHO cells, lentiviral pLenti-puro
Put shortly: as §1

In a further experiment the target is T3, FZD7 CRD (Homo sapiens, UniProt O75084).
T3 construct: D45-S169; GPI anchor signal (C); expressed in transfected cells; host or cells: CHO cells, lentiviral pLenti-puro
Put shortly: as §1

For a further experiment, the target named is T4, FZD5 CRD (Homo sapiens, UniProt Q13467).
T4 construct: K29-T156; GPI anchor signal (C); expressed in transfected cells; host or cells: CHO cells, lentiviral pLenti-puro
T4 sequence (Q13467 29-156): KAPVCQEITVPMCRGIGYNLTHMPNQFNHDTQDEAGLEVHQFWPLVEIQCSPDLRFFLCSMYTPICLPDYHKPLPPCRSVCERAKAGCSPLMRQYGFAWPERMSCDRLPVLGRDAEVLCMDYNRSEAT
Put shortly:
as §1

The target in the next experiment is T5, FZD8 CRD (Homo sapiens, UniProt Q9H461).
T5 construct: K31-D155; GPI anchor signal (C); expressed in transfected cells; host or cells: CHO cells, lentiviral pLenti-puro
T5 sequence (Q9H461 31-155): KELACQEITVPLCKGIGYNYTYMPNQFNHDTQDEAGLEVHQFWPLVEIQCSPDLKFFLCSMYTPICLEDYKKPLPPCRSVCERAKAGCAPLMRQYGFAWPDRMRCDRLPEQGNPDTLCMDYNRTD
The essentials: as §1

The text below walks through data of US20210253718A1, “FRIZZLED5 PROTEIN-BINDING AGENTS” (Modmab Therapeutics Corporation, priority 2016, published 2021).

Changes are numbered by the printed parent chain.

B1: Fab-2900: anti-FZD5 Fab with antibody variable region Fv-2900; CDR SEQ ID NOs: 35, 36, 39, 78, 115, 153 (antibody, V domains shown)
VH: EVQLVESGGGLVQPGGSLRLSCAASGFNLSSYYIHWVRQAPGKGLEWVASISSSSSSTSYADSVKGRFTISADTSKNTAYLQMNSLRAEDTAVYYCARGALDYWGQGTLVTVSS
VL: DIQMTQSPSSLSASVGDRVTITCRASQSVSSAVAWYQQKPGKAPKLLIYSASSLYSGVPSRFSGSRSGTDFTLTISSLQPEDFATYYCQQWYSGSSLFTFGQGTKVEIK
With B1, in the experiment with FZD1 CRD, the “Median fluorescence, Frizzled CRD overexpressed on CHO cells: FZD1” value (shortened to “Median fluorescence … FZD1”) is listed as 31.06. In addition, the “Median fluorescence, Frizzled CRD overexpressed on CHO cells: FZD2” value (shortened to “Median fluorescence … FZD2”) in the experiment with FZD2 CRD came to 6.15. Besides, the “Median fluorescence, Frizzled CRD overexpressed on CHO cells: FZD7” value (shortened to “Median fluorescence … FZD7”) with FZD7 CRD came out at 8.98.

B2: Fab-2907: anti-FZD5 Fab with antibody variable region Fv-2907; CDR SEQ ID NOs: 35, 36, 46, 85, 122, 159 (antibody, V domains shown)
VH: EVQLVESGGGLVQPGGSLRLSCAASGFNIYSSYMHWVRQAPGKGLEWVASISSYSGSTYYADSVKGRFTISADTSKNTAYLQMNSLRAEDTAVYYCARSSWGAYIVSYGFDYWGQGTLVTVSS
VL: B1 VL with W91V, Y92G, S93Y, G94W, S95W, S96G, F98I
B2: in the experiment with FZD1 CRD, the “Median fluorescence … FZD1” value was 3.28. Further, the “Median fluorescence … FZD2” value with FZD2 CRD stood at 4.07. Also, the “Median fluorescence, Frizzled CRD overexpressed on CHO cells: FZD5” value with FZD5 CRD came out at 32.78. Moreover, in the experiment with FZD7 CRD, the “Median fluorescence … FZD7” value turned out to be 2.62. Also, the “Median fluorescence, Frizzled CRD overexpressed on CHO cells: FZD8” value (shortened to “Median fluorescence … FZD8”) with FZD8 CRD is 11.76.

B3: Fab-2925: anti-FZD5 Fab with antibody variable region Fv-2925; CDR SEQ ID NOs: 35, 36, 64, 102, 140, 172 (antibody, V domains shown)
VH: EVQLVESGGGLVQPGGSLRLSCAASGFNLSYSSMHWVRQAPGKGLEWVASIYPSYGSTYYADSVKGRFTISADTSKNTAYLQMNSLRAEDTAVYYCARYGYFGLDYWGQGTLVTVSS
VL: B1 VL with W91A, Y92W, S93V, G94Y, S95A
For B3, the “Median fluorescence … FZD1” value in the experiment with FZD1 CRD was 19.46. Besides, in the experiment with FZD2 CRD, the “Median fluorescence … FZD2” value turned out to be 10.65. The “Median fluorescence … FZD7” value with FZD7 CRD is on record as 24.14. Also, the “Median fluorescence … FZD8” value with FZD8 CRD was 7.70.

B4: Fab-2905: anti-FZD5 Fab with antibody variable region Fv-2905; CDR SEQ ID NOs: 35, 36, 44, 83, 120, 157 (antibody, V domains shown)
VH: EVQLVESGGGLVQPGGSLRLSCAASGFNLSYYYMHWVRQAPGKGLEWVASIYSSYSYTSYADSVKGRFTISADTSKNTAYLQMNSLRAEDTAVYYCARSGYALDYWGQGTLVTVSS
VL: DIQMTQSPSSLSASVGDRVTITCRASQSVSSAVAWYQQKPGKAPKLLIYSASSLYSGVPSRFSGSRSGTDFTLTISSLQPEDFATYYCQQSSWYYGYPFTFGQGTKVEIK
On to B4, for which the “Median fluorescence … FZD1” value with FZD1 CRD was found to be 3.75. For the same molecule, the “Median fluorescence … FZD2” value with FZD2 CRD worked out at 5.09. In addition, the “Median fluorescence … FZD7” value with FZD7 CRD came out at 3.43. Besides, in the experiment with FZD8 CRD, the “Median fluorescence … FZD8” value was 8.17.

B5: Fab-2915: anti-FZD5 Fab with antibody variable region Fv-2915; CDR SEQ ID NOs: 35, 36, 54, 93, 130, 166 (antibody, V domains shown)
VH: EVQLVESGGGLVQPGGSLRLSCAASGFNIYYYSMHWVRQAPGKGLEWVASIYSSYGYTSYADSVKGRFTISADTSKNTAYLQMNSLRAEDTAVYYCARGYHYYPYYSGLDYWGQGTLVTVSS
VL: DIQMTQSPSSLSASVGDRVTITCRASQSVSSAVAWYQQKPGKAPKLLIYSASSLYSGVPSRFSGSRSGTDFTLTISSLQPEDFATYYCQQAYYHSLITFGQGTKVEIK
As to B5, in the experiment with FZD5 CRD, the “Median fluorescence, Frizzled CRD overexpressed on CHO cells: FZD5” value amounted to 27.63. Further, the “Median fluorescence … FZD8” value in the experiment with FZD8 CRD is reported as 10.00.
